Laboratory results from patent US20160303225A1 (HENRY M JACKSON FOUNDATION FOR THE ADVANCEMENT OF MILITARY …, published 2016).

Molecular target: T1, modified HCMV gB (homotrimeric complex of modified human cytomegalovirus glycoprotein B) (human cytomegalovirus (HCMV), UniProt F5HB53 25-750)
T1 construct: It runs as a 360 kDa homotrimer under native or partially reducing conditions and as a 120 kDa monomer under fully reducing or denaturing conditions; also called trimeric HCMV gB; HCMV trimeric gB
Assay: purified proteins mixed 1:1 (molecular ratio) and incubated at room temperature for 2 hours; Western blot under non-reducing conditions

B1: HCMV gH/gL fusion protein (other)
chain: DATVSVAPTVAEKVPAECPELTRRCLLGEVFQGDKYESWLRPLVNVTRRDGPLSQLIRYRPVTPEAANSVLLDDAFLDTLALLYNNPDQLRALLTLLSSDTAPRWMTVMRGYSECGDGSPAVYTCVDDLCRGYDLTRLSYGRSIFTEHVLGFELVPPSLFNVVVAIRNEATRTNRAVRLPVSTAAAPEGITLFYGLYNAVKEFCLRHQLDPPLLRHLDKYYAGLPPELKQTRVNLPAHSRYGPQAVDARGGGGSGGGGSGGGGSYGAEAISEPLDKAFHLLLNTYGRPIRFLRENTTQCTYNSSLRNSTVVRENAISFNFFQSYNQYYVFHMPRCLFAGPLAEQFLNQVDLTETLERYQQRLNTYALVSKDLASYRSFSQQLKAQDSLGEQPTTVPPPIDLSIPHVWMPPQTTPHGWTESHTTSGLHRPHFNQTCILFDGHDLLFSTVTPCLHQGFYLIDELRYVKITLTEDFFVVTVSIDDDTPMLLIFGHLPRVLFKAPYQRDNFILRQTEKHELLVLVKKDQLNRHSYLKDPDFLDAALDFNYLDLSALLRNSFHRYAVDVLKSGRCQMLDRRTVEMAFAYALALFAAARQEEAGAQVSVPRALDRQAALLQIQEFMITCLSQTPPRTTLLLYPTAVDLAKRALWTPNQITDITSLVRLVYILSKQNQQHLIPQWALRQIADFALKLHKTHLASFLSAFARQELYLMGSLVHSMLVHTTERREIFIVETGLCSLAELSHFTQLLAHPHHEYLSDLYTPCSSSGRRDHSLERLTRLFPDATVPTTVPAALSILSTMQPSTLETFPDLFCLPLGESFSALTVSEHVSYVVTNQYLIKGISYPVSTTVVGQSLIITQTDSQTKCELTRNMHTTHSITAALNISLENCAFCQSALLEYDDTQGVINIMYMHDSDDVLFALDPYNEVVVSSPRTHYLMLLKNGTVLEVTDVVVDATDSRLHHHHHH
notes: It was expressed in CHO DG44 cells; also called monomeric gH/gL; gH/gL heterodimer
B1: binds.
